{"source": "patent US20230288413A1", "key": {"[1]": {"molecular_target": "anti-S1 fragment of SARS-CoV-2's spike protein antibody", "test": "lateral flow dipstick; separate experiment with improved hydrogel and streptavidin; S1-coated gold nanoparticles as reporter (FIG. 3, panel d)"}, "[2]": {"molecular_target": "anti-S1 fragment of SARS-CoV-2's spike protein antibody", "test": "lateral flow dipstick; capture antibody trapped in 5% acrylamide hydrogel; S1-coated gold nanoparticles as reporter (FIG. 3, panel b)"}, "[3]": {"molecular_target": "anti-S1 fragment of SARS-CoV-2's spike protein antibody", "test": "lateral flow dipstick; capture antibody held by streptavidin trapped in the hydrogel; S1-coated gold nanoparticles as reporter (FIG. 3, panel c)"}, "[4]": {"molecular_target": "anti-S1 fragment of SARS-CoV-2's spike protein antibody", "test": "lateral flow dipstick; capture antibody immobilized by physical adsorption; S1-coated gold nanoparticles as reporter (FIG. 3, panel a)"}}, "data": [{"substance": "biotin-SP-conjugated anti-human IgG Fc (antibody)", "values": [{"measurement": "limit of detection", "setting": "[1]", "value": 0.05, "unit": "ng"}, {"measurement": "limit of detection", "setting": "[2]", "value": 1, "unit": "ng"}, {"measurement": "limit of detection", "setting": "[3]", "value": 0.1, "unit": "ng"}, {"measurement": "limit of detection", "setting": "[4]", "value": 10, "unit": "ng"}]}]}
